From publication PMC4504198 (Chemical biology & drug design, 2010)

Experiment: in vitro
Type: in vitro ADME
Conditions: human, plasma

Structure (SMILES)	half-life
[N-]=[N+]=NC(CCCCNC(=O)[C@H](CCC(=O)O)NC(=O)C1=C[C@H](O)[C@@H](NC(=O)[C@H](CCC(=O)O)NC(=O)C2=C[C@H](O)[C@@H](NC(=O)[C@H](CCC(=O)O)NC(=O)C3=C[C@H](O)[C@@H](NC(=O)CN4CCN(CC(=O)O)CCN(CC(=O)O)CCN(CC(=O)O)CC4)[C@H]([C@H](O)[C@H](O)CO)O3)[C@H]([C@H](O)[C@H](O)CO)O2)[C@H]([C@H](O)[C@H](O)CO)O1)C(N)=O (some centres unmarked) [compound 10]	16.2 days
[N-]=[N+]=NC(CCCCNC(=O)C1=C[C@H](O)[C@@H](NC(=O)[C@@H](CCC(=O)O)NC(=O)C2=C[C@H](O)[C@@H](NC(=O)[C@@H](CCC(=O)O)NC(=O)C3=C[C@H](O)[C@@H](NC(=O)[C@@H](CCC(=O)O)NC(=O)CN4CCN(CC(=O)O)CCN(CC(=O)O)CCN(CC(=O)O)CC4)[C@H]([C@H](O)[C@H](O)CO)O3)[C@H]([C@H](O)[C@H](O)CO)O2)[C@H]([C@H](O)[C@H](O)CO)O1)C(N)=O (some centres unmarked) [compound 7]	4.08 days
